Source: the nanobody polyreactivity screen of Harvey et al. (2022)

Experiment: yeast display, Sf9 membrane polyspecificity reagent, FACS + sequencing; frameworks hold sequencing errors
Summary of the method: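 In a synthetic yeast display library (Saccharomyces cerevisiae BJ5465), nanobody expression was induced with galactose for 36–48 hours. FACS gates were set low and high (top ~1%) using anti-HA fluorescence for expression and streptavidin fluorescence for binding of the Sf9 membrane reagent. Each polyreactivity label is drawn from the gate of origin.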

Sequence | polyreactivity (PSR sort gate)
QVQLVESGGGLVQAGGSLRLSCAASGSTFRWYGMGWYRQAPGKERELVAVITRGGSTYYADSVKGRFTISRDNAKNTVYLQMNSLKPEDTAVYYCARVRGPNNAFYLGSTYGYWGQGTQVTVSS | high polyreactivity
QVQLVESGGGLVQAGGSLRLSCAASGSTFRYNAKGWYRQAPGKERELVAAINRGGGTDYADSVKGRFTISRDNAKNTVYLQMNSLKPEDTAVYYCAKQFVSYNRWLAYGYWGQATQVTVSS | low polyreactivity
QVQLVESGGGLVQAGGSLRLSCAASGSTFRYNAMGWYRPAPGKERELVAAITSGGGTNYADSVKGRFTISRDNAKNTVYLQMNSLKPEDTAVYYCAAPWGLGSELLKRDYWGQGTQVTVSS | low polyreactivity
QVQLVESGGGLVQAGGSLRLSCAASGSTFRYNAMGWYRQAPGKERELVAAISSGSSTNYADSVKGRFTISRDNEKNTVYFQMNSLKPVDTAVYYCAAQPGYYDDFYYWGQGTQVTVSA | low polyreactivity
QVQLVESGGGLVQAGGSLRLSCAASGSTFRYNAMGWYRQAPGKERELVAAITSGGGTNYADSVKGRFTISRDNAKNTVYLQMKSLKPEDTAVYYCAAPWGLGSELLKRDYWGQGTQVTVSS | low polyreactivity
QVQLVESGGGLVQAGGSLRLSCAASGSTFRYNAMGWYRQAPGKERELVAAITSTGDSTYYADSVKGRFTISRDNAKNTVYLQMNSLKPEDTAVYYCAARSYASPGWRYEYWGQGTQVTVSS | low polyreactivity
QVQLVESGGGLVQAGGSLRLSCAASGSTFRYNAMGWYRQAPGKERELVAGISYRGGTTYYADSVKGRFTISRDNAKNTVYLQMNSLKPEDTAVYYCAAGASSPGGWFYYWGQGTQVTVSS | high polyreactivity
QVQLVESGGGLVQAGGSLRLSCAASGSTFRYNAMGWYRQAPGKERELVAGITSSGGTYADSVKGRFTISRDNAKNTVSLQMNSLKPEDTAVYSCAAEYNWYDYWGQGTQVTVSS | low polyreactivity
QVQLVESGGGLVQAGGSLRLSCAASGSTFRYNAMGWYRQAPGKVRELVAAIDKRGDSTYADSVKGRFTISRDNAKNTVYLQMNSLKPEDTAVYYCAADSDSKYNYGFLWDTYEYWGQGTQVTVSS | low polyreactivity
QVQLVESGGGLVQAGGSLRLSCAASGSTFRYNAMGWYRQAPGKVRQLVAAIDKRGDSTYADSVKGRFTISRDNAKNTVYLQMNSLKPEDTAVYYCAADSDSKYNYGFLWDTYEYWGQGTQVTVSS | low polyreactivity
QVQLVESGGGLVQAGGSLRLSCAASGSTFRYNVMGWYRQAPGKERELVATISYSGGSTNYADSVKGRFTISRDNAKNTDYLQMNSLKPEDTAVYYCAARYLYPFYRYWWYDYWGQGTQVTVSS | high polyreactivity
QVQLVESGGGLVQAGGSLRLSCAASGSTFRYYALGWYRQAPGKERELVAAINRSGGSTYYADSVKGRFTISRDNAKNTVDLQMNSLKQEETAVYYCAAPWARHYSNPDDYWGQGTQVTVSS | high polyreactivity
QVQLVESGGGLVQAGGSLRLSCAASGSTFRYYALGWYRQAPGKERELVAAISTSGGRTYYADSVKGRFTISRDNAKNTVYLQMNSLKPEDTAVYYCNARESRGYAYQTWKYYYWGQGTQVTVSS | high polyreactivity
QVQLVESGGGLVQAGGSLRLSCAASGSTFRYYAMGWYRPAPGKERELVAAINSSGGSTYYADSVKGRFTISRDNAKNTVYLQMNSLKPEDTAVYYCATVYAYTGWLTNPREYSRYDYWGQGTQVTVSS | low polyreactivity
QVQLVESGGGLVQAGGSLRLSCAASGSTFRYYAMGWYRQAPGEEREFVASISSTGTSRYYADSVKGRFTISRDNAKNTVYLQMNSLKPEDTAVYYCAARYISYYGYNHWGQGTQVTVSS | high polyreactivity
QVQLVESGGGLVQAGGSLRLSCAASGSTFRYYAMGWYRQAPGKERELVAAISGSGGSTYYADSVKGRFTISRDNAKNTVYFQMNSLKPEDTAVYYCNKVYARLVLSYDSWGQGTQVTVSS | high polyreactivity
QVQLVESGGGLVQAGGSLRLSCAASGSTFRYYAMGWYRQAPGKERELVAAISSSGGSTYYADSVKGRFTISRDNAKNTVYLQLNSLKPEDTAVYYCNRGVVYRTGRFDYWGQVTQVTVSS | high polyreactivity
QVQLVESGGGLVQAGGSLRLSCAASGSTFRYYAMGWYRQAPGKERELVAAITSSGGSTYYADSVKGRFTISRDNAKNTVYLQMNSLKPEDTAVYYCAVAVKNWVKLNYWGQGTQVTVSS | high polyreactivity
QVQLVESGGGLVQAGGSLRLSCAASGSTFRYYAMGWYRQAPGKVRELVAAITSSGGSTYYADSVKGRFTISRDNEKNTVYLQMNSLKPEDTAVYYCNAVSSYREDDYWGQGTQVTVSS | high polyreactivity
QVQLVESGGGLVQAGGSLRLSCAASGSTFRYYAMGWYRQSPGKEREFVAAITKVGSRTSYADSVKGRFTISRDNAKNTVYLQMNSLKPEDTAVYYCATRDSPRTKNGYYYWGQGTKVTVSS | high polyreactivity
QVQLVESGGGLVQAGGSLRLSCAASGSTFRYYGMGWYRQAPGKERELVATINRGGRTYYADSVKGRFTISRDNAKNTVYLQMNSLKPEDTAVYYCAADYYYYVACVHDDYWGQGTQVTGSS | low polyreactivity
QVQLVESGGGLVQAGGSLRLSCAASGSTFRYYVMGWSRQAPGKEMELVAGISYRGGTTYYADSVKGRFTISRDNAKITVYLQMNSMKPEDTAVYYCNAGYTLYHYYSWYAFGYWGQGTQGTVSS | low polyreactivity

Sequence | polyreactivity (PSR sort gate)
QVQLVESGGGLVQAGGSLRLSCAASGSTFRYYVMGWYRQAPGKERELVAAISRTGGRTYYADSVKGRFTISRDNAKNTVYLQMNSLKPEDTAVYYCAARNVTTKRYYYWGQGTQVTVSS | high polyreactivity
QVQLVESGGGLVQAGGSLRLSCAASGSTFRYYVMGWYRQAPGKERELVARITSAASTNYADSVKGRFTISRDNAKNTVYLQMNSLNPEDTAVYYCAARKYGSRYRLKYDYWGQGTQVTVSS | high polyreactivity
QVQLVESGGGLVQAGGSLRLSCAASGSTFSAYAMGWYRQAPGKERELVAAISKRGGSTYYADSVKGRFTISRDNAKNTVYLQMNSLKPEDTAVYYCNKESLYREFDYWGQGTQVTVSS | low polyreactivity
QVQLVESGGGLVQAGGSLRLSCAASGSTFSAYGMGWYRQAPGKEMELVASISWNGGSTYYADSVQGRFTISGDNAKNTVYLQMNSLKPEDTAVYYCNTELVGHPDWLSWRYYYWGQGTQVTVSS | low polyreactivity
QVQLVESGGGLVQAGGSLRLSCAASGSTFSAYTMGWDRQAPGKERELVAAIRFDGGRTYYADSVKGRFTISRDNAKNTVYLQMNSLKPEDTAVYYCPAWQSYSYDYWGQGTQLTVSS | high polyreactivity
QVQLVESGGGLVQAGGSLRLSCAASGSTFSAYTMGWYRQAPGKERELVAAISYRGGSTYYADSVKGRFTISRDNAKNTVYLQMNSRKPEDTAVYYCAAERKHYGLYDYWGQGTQVTVSS | low polyreactivity
QVQLVESGGGLVQAGGSLRLSCAASGSTFSCNSMGWYRQAPGKERELVAAITSGGSTNYADSVKGRFTISRDNAKNTVFLQMNSLKPEDTAVYYCAKRYGYRRYYTASDYWGQGTQVTVSS | low polyreactivity
QVQLVESGGGLVQAGGSLRLSCAASGSTFSDNAMGWYRQAPGKERELVAAISSGGSTNYADSVKGRFTISRDNAKNTVYLQMNSLKPEDTAVYYCAREYYSRRYDYWGQGTQVTVSS | low polyreactivity
QVQLVESGGGLVQAGGSLRLSCAASGSTFSDYAMGWYRPAPGKERELVAAISSDGSTYYADSVKGRFTISRDNANNTVYLQMNILKPEDTAVYYCAKDVILVWPYATGRDYCGQGTQVTVSS | low polyreactivity
QVQLVESGGGLVQAGGSLRLSCAASGSTFSDYAMGWYRQAPGKERELVAAISSSGGRTYYADSVKGRFTISRDNAKNTVYLQMNSLKPEDTAVYYCNAYYIYILYGGQTYTGDYWGQGTQVTVSS | high polyreactivity
QVQLVESGGGLVQAGGSLRLSCAASGSTFSDYAMGWYRQEPGKERELVAAISSDGSTYYADSVKGRYTISRDNAKNTVYLQMNSLKPEDTAVYYCAKDVILVWPYATGRDFWGQGTQVTVSS | low polyreactivity
QVQLVESGGGLVQAGGSLRLSCAASGSTFSFNAKGWYRQAPGKARELVAAITGGDGTNYADSVKGRFTISRDNAKNTVYLQMNSLKPEDTAVNYCAADQWGSTEDYWFTYGYWGQGTQVTVSS | low polyreactivity
QVQLVESGGGLVQAGGSLRLSCAASGSTFSFYAMGWYRQAPGKERELVAAIDSGGRTKYADSVKGRFTISRDNAKNTVYLLMNSLKPEDTAVYYCAAVFRGWWLYDYWGQGTQVTVSS | low polyreactivity
QVQLVESGGGLVQAGGSLRLSCAASGSTFSFYAMGWYRQAPGKERELVAAITWTTGSTYADSVKGRFTISRDNAKNTVYLQMNSLKPEDTAVYYCAAKKFRRSRDSYYWGPGTQVTVSS | high polyreactivity
QVQLVESGGGLVQAGGSLRLSCAASGSTFSFYAMGWYRQAPGKERELVAVFTRGGSTYYADSVKGRFTISRDNAKNTVYLQMNSLKPEDTAVYYCAARSTSNGQRSLHYGYWGQGTQVTVSS | low polyreactivity
QVQLVESGGGLVQAGGSLRLSCAASGSTFSFYAMGWYRQAPGQERELVAAIRAGTRTYYADSVKGRFTISRDNAKNTVYLQMNSLKPEDTAVYYCAATRRRYPYYYWGQGTQVTVSS | high polyreactivity
QVQLVESGGGLVQAGGSLRLSCAASGSTFSGKAMGWYRQAPGKERELVAAITSSGGSTYYADSVKGRFTISRDNAKNTVYLQMNSLKPEDTAVYYCAAKSRRTRRSYYWGQGTQVTVSS | high polyreactivity
QVQLVESGGGLVQAGGSLRLSCAASGSTFSGNAMGWYRQAPGKEMEMVAAISGRGGSTYYADSVKGRFTISRDNAKNTVFLQMKSLKPEDTAVYYCAKRRNTRGAYGYWGQGTQVTVSS | high polyreactivity
QVQLVESGGGLVQAGGSLRLSCAASGSTFSGNAMGWYRQAPGKEREFVAAIFSDGSTYYADSVKGRFTISRDNAKNTVYLQMNSLKPEDTAVYYCAAAWYEPATQTGYFEFDYWGQGTQVTVSS | low polyreactivity
QVQLVESGGGLVQAGGSLRLSCAASGSTFSGNAMGWYRQAPGKERELVAAINSVRTYYADSVKGRFTISRDNAKNTVYLQMNSLKPEDTAVYYCAARQGYSSRYPAKGYYWGQGTQVTVSS | high polyreactivity
QVQLVESGGGLVQAGGSLRLSCAASGSTFSGNAMGWYRQAPGKERELVAAISQSGGSTYYADSVKGRFTISRDNAKNTVYLQMNSLKPEDTAVYYCNRLYYFLARRMDSWGQGTQVTVSS | high polyreactivity
